39 sequences from the supplement of paper PMC7877785 can be followed below.

± gives the uncertainty stated by the source.

A short description of this data set: self-splicing fitness, log relative to wild type (ln ratio); higher = more splicing; Tetrahymena group I intron in knt gene, E. coli kanamycin selection, DiMSum; sequences stand for … in CUCUCU…GGAGGGAAAAGUUAUCAGGCAUGCACCUGGUAGCUAGUCUUUAAACCAAUAGAUUGCAUCGGUUUAAAAGGCAAGACCGUCAAAUUGCGGGAAAGGGGUCAACAGCCGUUCAGUACCAAGUCUCAGGGGAAACUUUGAGAUGGCCUUGCAAAGGGUAUGGUAAUAAGCUGACGGACAUGGUCCUAACCACGCAGCCAAGUCCUAAGUCAACAGAUCUUCUGUUGAUAUGGAUGCAGUUCACAGACUAAAUGUCGGUCGGGGAAGAUGUAUUCUUCUCAUAAGAUAUAGUCGGACCUCUCCUUAAUGGGAGCUAGCGGAUGAAGUGAUGCAACACUGGAGCCGCUGGGAACUAAUUUGUAUGCGAAAGUAUAUUGAUUAGUUUUGGAGUACUCGUGGUCG
The procedure, abridged: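 Colonies from six replicate transformations of E. coli BL21(DE3) were pooled and amplicon-sequenced on an Illumina HiSeq 2500. The library placed an intron with all eight P1ex-region nucleotides randomised inside the knt kanamycin-resistance gene on pET-22b(+), and cells grew overnight at 37°C or 30°C on LB agar with or without 25 μg/mL kanamycin (plus 100 μg/mL carbenicillin, 50 μM IPTG, 0.2% rhamnose). Fitness is the DiMSum error-weighted combination of wild-type-normalised replicate fold changes, kanamycin versus none.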

Consider AUCUAGCAAUAUUACGUAAG, for which the “self-splicing fitness (ln)” value is -2.37 ± 0.12 (30 °C) and -1.16 ± 0.15 (37 °C). The like results for GUCCAGCAAUAUUACGUUCC were, in that order, -1.46 ± 0.083 and -0.198 ± 0.1. As to AGAAAGCAAUAUUACGAGAC, the “self-splicing fitness (ln)” value (30 °C) was -2.65 ± 0.3 and the “self-splicing fitness (ln)” value (37 °C) was -2.13 ± 0.47. The like results for UUCUAGCAAUAUUACGAUCA were, in that order, -1.69 ± 0.23 and -0.172 ± 0.18. Consider GGAUAGCAAUAUUACGCCUA, for which the “self-splicing fitness (ln)” value runs as follows: (30 °C) -1.45 ± 0.14; (37 °C) -0.0155 ± 0.17.

As for UAGAAGCAAUAUUACGGUCG, the “self-splicing fitness (ln)” value was -0.229 ± 0.1 (30 °C) and 0.153 ± 0.14 (37 °C). The like results for UUUUAGCAAUAUUACGCGUU were, in that order, -2.55 ± 0.18 and -2.61 ± 0.19. The like results for CCAAAGCAAUAUUACGAGGC were, in that order, -4.23 ± 0.27 and -2.46 ± 0.22.

Consider CUAUAGCAAUAUUACGACUU, for which the “self-splicing fitness (ln)” value reads like this: (30 °C) -2.98 ± 0.3; (37 °C) -1.54 ± 0.34. The like results for CUGCAGCAAUAUUACGAGUU were, in that order, -3.55 ± 0.21 and -2.83 ± 0.28. As to AGCAAGCAAUAUUACGCGCU, the “self-splicing fitness (ln)” value (37 °C) was -2.2 ± 0.32. On to CGUGAGCAAUAUUACGGACG, for which the “self-splicing fitness (ln)” value by setting is: (30 °C) -2.08 ± 0.22; (37 °C) -1.31 ± 0.38. The like results for CGCCAGCAAUAUUACGAGCU were, in that order, -3.06 ± 0.097 and -1.59 ± 0.094.

On to GUAGAGCAAUAUUACGAUAA, for which the “self-splicing fitness (ln)” value was -1.5 ± 0.15 (30 °C) and 0.242 ± 0.19 (37 °C). The like results for GAAUAGCAAUAUUACGACGC were, in that order, 0.293 ± 0.13 and -0.0831 ± 0.16.

CCACAGCAAUAUUACGUACG: the “self-splicing fitness (ln)” value by setting is: (30 °C) -0.647 ± 0.047; (37 °C) -0.02 ± 0.063. The like results for UCAAAGCAAUAUUACGAACC were, in that order, -2.8 ± 0.27 and -0.879 ± 0.28. The like results for ACCUAGCAAUAUUACGUGAC were, in that order, -3.2 ± 0.12 and -0.892 ± 0.11. The like results for UAACAGCAAUAUUACGCGUC were, in that order, -4.61 ± 0.34 and -2.7 ± 0.18. With GGACAGCAAUAUUACGUAGG, the “self-splicing fitness (ln)” value (30 °C) was -0.254 ± 0.053 and the “self-splicing fitness (ln)” value (37 °C) is -0.517 ± 0.063. The like results for AAUCAGCAAUAUUACGUGCC were, in that order, -1.4 ± 0.14 and -0.598 ± 0.16.

As to CGGUAGCAAUAUUACGACCC, the “self-splicing fitness (ln)” value reads like this: (30 °C) 0.488 ± 0.48; (37 °C) -1.29 ± 0.44. The like results for GAAGAGCAAUAUUACGCACU were, in that order, -2.39 ± 0.17 and -1.33 ± 0.18. In the case of CGGAAGCAAUAUUACGAUCU, the “self-splicing fitness (ln)” value was -1.11 ± 0.12 (30 °C) and -0.942 ± 0.15 (37 °C). The like results for CUCCAGCAAUAUUACGGUUC were, in that order, -2.51 ± 0.17 and -3.19 ± 0.35. For GGGAAGCAAUAUUACGUGCG, the “self-splicing fitness (ln)” value (30 °C) was -1.4 ± 0.11 and the “self-splicing fitness (ln)” value (37 °C) was -0.371 ± 0.13. As for CCGAAGCAAUAUUACGUGCC, the “self-splicing fitness (ln)” value was -2.83 ± 0.29 (30 °C) and -2.64 ± 0.44 (37 °C). The like results for UCUUAGCAAUAUUACGACUU were, in that order, -3.52 ± 0.31 and -2.47 ± 0.31. As to ACGAAGCAAUAUUACGGAUG, the “self-splicing fitness (ln)” value (30 °C) is -2.82 ± 0.13 and the “self-splicing fitness (ln)” value (37 °C) was -1.44 ± 0.11. The like results for GGAAAGCAAUAUUACGAGCA were, in that order, -1.01 ± 0.078 and -0.54 ± 0.083. In the case of CGAAAGCAAUAUUACGCGUC, the “self-splicing fitness (ln)” value (37 °C) is -0.242 ± 0.19. For UUCGAGCAAUAUUACGAAAA, the “self-splicing fitness (ln)” value is, setting by setting: (30 °C) -2.97 ± 0.31; (37 °C) -1.28 ± 0.18.

Consider CGAGAGCAAUAUUACGUUAU, for which the “self-splicing fitness (ln)” value runs as follows: (30 °C) -3.57 ± 0.28; (37 °C) -2.8 ± 0.28. The like results for GCCUAGCAAUAUUACGUUAG were, in that order, -4.33 ± 0.18 and -2.4 ± 0.16. The like results for UAUGAGCAAUAUUACGGUGC were, in that order, -3.01 ± 0.41 and -0.888 ± 0.3. Regarding ACGCAGCAAUAUUACGAAGA, the “self-splicing fitness (ln)” value (37 °C) was -1.43 ± 0.26. Same read-out and setting: in the case of CUGUAGCAAUAUUACGUGGC it was 0.0373 ± 0.2.

As to GCCAAGCAAUAUUACGCCCA, the “self-splicing fitness (ln)” value was -1.18 ± 0.1 (30 °C) and -0.6 ± 0.12 (37 °C).

With GGAAAGCAAUAUUACGCCUG, the “self-splicing fitness (ln)” value (30 °C) was -1.73 ± 0.34.
